The results in this text go back to paper PMC4042526.

The test concerns the target Tbx20^eh1mut-EGFP (mouse) (UniProt Q9ES03). The test is described as follows: affinity purification with mass spectrometry.
Sequence of UniProt Q9ES03 (Q9ES03 whole entry F18L/S19I): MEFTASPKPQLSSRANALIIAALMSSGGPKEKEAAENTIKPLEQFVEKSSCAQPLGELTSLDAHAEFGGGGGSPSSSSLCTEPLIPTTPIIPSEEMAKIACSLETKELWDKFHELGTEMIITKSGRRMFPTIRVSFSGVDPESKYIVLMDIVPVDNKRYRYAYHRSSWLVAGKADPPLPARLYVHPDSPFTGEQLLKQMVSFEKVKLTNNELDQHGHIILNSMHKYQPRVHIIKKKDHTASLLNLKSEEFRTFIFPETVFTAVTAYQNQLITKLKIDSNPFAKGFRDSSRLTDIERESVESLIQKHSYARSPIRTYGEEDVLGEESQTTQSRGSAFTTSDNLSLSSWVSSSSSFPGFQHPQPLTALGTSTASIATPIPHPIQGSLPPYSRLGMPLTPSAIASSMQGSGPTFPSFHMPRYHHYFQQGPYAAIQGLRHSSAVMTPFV

“Transducin-like enhancer of split 1 (from UniProt Q04724 1-770) (natural protein)” gave a fold decrease in eh1mut against wild-type Tbx20 (MS1-based) of more than 10 fold.

As to “Transducin-like enhancer of split 3 (from UniProt Q04726 1-772) (natural protein)”, the fold decrease in eh1mut against wild-type Tbx20 (MS1-based) was more than 10 fold.
